Results on three substances are retold here after publication PMC5383250.

In test [1] the target is E. faecalis RNase J1 (Enterococcus faecalis (strain OG1RF)). The experiment in a line: SPR; Biacore T100; E. faecalis RNase J1 immobilized on a CM5 sensor surface; J2 proteins 400 to 50 nM in duplicate; fitted to the 1:1 binding model.
Test [2] addresses RNase J2 (Bacillus subtilis) (UniProt O31760). As to conditions: cited from earlier work.

Chain of RNase J1 (Q45493 whole entry): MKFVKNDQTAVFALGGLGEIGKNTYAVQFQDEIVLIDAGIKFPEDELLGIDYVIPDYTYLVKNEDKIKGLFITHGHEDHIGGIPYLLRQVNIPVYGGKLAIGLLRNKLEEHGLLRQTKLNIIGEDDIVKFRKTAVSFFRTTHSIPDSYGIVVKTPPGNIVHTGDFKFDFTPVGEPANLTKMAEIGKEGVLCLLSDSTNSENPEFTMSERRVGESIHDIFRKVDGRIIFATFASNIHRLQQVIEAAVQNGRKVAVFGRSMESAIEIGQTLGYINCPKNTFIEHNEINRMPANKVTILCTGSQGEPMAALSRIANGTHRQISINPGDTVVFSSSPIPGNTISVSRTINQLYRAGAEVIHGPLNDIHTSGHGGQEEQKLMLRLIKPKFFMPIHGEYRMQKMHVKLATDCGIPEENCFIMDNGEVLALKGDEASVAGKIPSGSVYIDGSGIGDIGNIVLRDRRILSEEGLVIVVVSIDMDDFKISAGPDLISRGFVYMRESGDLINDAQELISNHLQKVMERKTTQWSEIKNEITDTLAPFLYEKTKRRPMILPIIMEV

As for E. faecalis RNase J2 H69A (enzyme), the dissociation constant (Kd) in test [1] was 81 nM.
For E. faecalis RNase J2 H71A (enzyme), in test [1], the Kd worked out at 89 nM.
For RNase J1 (from UniProt Q45493), the Kd in test [2] was 80 nM.
